Measurements published in patent US20190004063A1.

Assays:
Test in all cases: flow cytometry on modified HEK293T cells without CD74
[1] = target: SLA-DQα1*0204 + DQβ1*0601 (pairing 6) on modified HEK293T cells without CD74 (pig)
[2] = target: SLA-DQα1*0101 + DQβ1*0601 (pairing 8) on modified HEK293T cells without CD74 (pig)
[3] = target: SLA-DQα1*0204 + DQβ1*0303 (pairing 5) on modified HEK293T cells without CD74 (pig)
[4] = target: SLA-DRα*020102 + DRβ1*0403 (pairing 1) on modified HEK293T cells without CD74 (pig)
[5] = target: SLA-DRα*w04 + DQβ1*0303 (pairing 10) on modified HEK293T cells without CD74 (pig)
[6] = target: SLA-DRα*020102 + DQβ1*0303 (pairing 9) on modified HEK293T cells without CD74 (pig)
[7] = target: SLA-DQα1*0101 + DQβ1*0303 (pairing 7) on modified HEK293T cells without CD74 (pig)
[8] = target: SLA-DRα*w04 + DRβ1*0403 (pairing 3) on modified HEK293T cells without CD74 (pig)
[9] = target: SLA-DRα*w04 + DRβ1*1001 (pairing 4) on modified HEK293T cells without CD74 (pig)
[10] = target: SLA-DRα*020102 + DRβ1*1001 (pairing 2) on modified HEK293T cells without CD74 (pig)

background MFI [1]: 1000 MFI
background MFI [2]: 1000 MFI
background MFI [3]: 1000 MFI
background MFI [4]: 1000 MFI
background MFI [5]: 1000 MFI
background MFI [6]: 1000 MFI
background MFI [7]: 1000 MFI
background MFI [8]: 1000 MFI
background MFI [9]: 1000 MFI
background MFI [10]: 1000 MFI
Substance: CerCLIP.1, a monoclonal antibody specific for invariant chain peptides associated with Class II SLA
